Assay [1] concerns the target T1, Mouse PD-L1 on CHO cells (mouse, UniProt Q9EP73 19-290).
T1 construct: Expressed in CHO cells for the cross-reactivity test; also called mPD-L1; murine PD-L1 protein
The assay can be described thus: flow cytometry on CHO cells expressing mPD-L1. An excerpt:
(§1) The rhesus monkey PD-L1 protein coding sequence (rmPD-L1, SEQ ID NO: 54), the mouse PD-L1 protein coding sequence (mPD-L1, SEQ ID NO: 53), and the human-mouse chimeric PD-L1 (the extracellular region of the mouse PD-L1 protein was replaced with human protein fragments) protein coding sequence (chiPD-L1, SEQ ID NO: 55) were transferred into CHO cells for protein expression and used for the antibody cross-reactivity testing.
(§2) The test was detailed as follows: a 96-well cell culture plate was used, and the above-mentioned CHO cells expressing different PD-L1 proteins (25 μl, 2×10⁴ cells/well) was added to each well, and then 25 μl of the ascites purified anti-PD-L1 antibodies (1 μg/ml) were added to each well. The mixture was incubated at 4° C. for 30 minutes. The 96-well cell culture plate was centrifuged at 1200 rpm for 5 minutes and washed twice with PBS. Subsequently, 50 μl of anti-mouse IgG Fc-FITC at 1:100 dilution was added to each well, and was incubated at 4° C. for 30 minutes. Subsequently, the 96-well cell culture plate was centrifuged at 1200 rpm for 5 minutes, and washed once with PBS. Then 200 μl of PBS was added to each well, and flow cytometry analysis was performed.
In general terms: A flow cytometer gives signals particle by particle.

Assay [2] has as its target T1, Mouse PD-L1 on CHO cells. The assay is described as follows: flow cytometry, CHO-mPD-L1 cells, Anti-mouse-IgGFc-FITC, antibody 1 µg/ml.
Source text: as §1, §2

Assay [3] has as its target T2, Rhesus monkey PD-L1 on CHO cells (rhesus monkey, UniProt Q9NZQ7 19-290 (human entry)).
T2 construct: Expressed in CHO cells for the cross-reactivity test; also called rmPD-L1; NP_001077358.1
T2 chain: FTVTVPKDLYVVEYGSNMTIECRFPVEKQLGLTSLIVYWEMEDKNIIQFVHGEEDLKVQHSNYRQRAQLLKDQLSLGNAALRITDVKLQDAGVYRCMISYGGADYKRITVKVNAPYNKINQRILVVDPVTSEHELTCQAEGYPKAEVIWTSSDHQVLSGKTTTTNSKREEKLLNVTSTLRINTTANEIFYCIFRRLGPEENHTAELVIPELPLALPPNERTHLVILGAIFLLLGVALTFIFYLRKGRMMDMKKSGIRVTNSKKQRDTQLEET
The assay can be described thus: flow cytometry, CHO-rmPD-L1 cells, Anti-mouse-IgGFc-FITC, antibody 1 µg/ml.
Source text: as §1, §2

Assay [4] deals with T3, human-mouse chimeric PD-L1 on CHO cells (human-mouse chimeric, UniProt Q9EP73 19-290 (mouse entry)).
T3 construct: expressed in CHO cells; also called chiPD-L1
T3 chain: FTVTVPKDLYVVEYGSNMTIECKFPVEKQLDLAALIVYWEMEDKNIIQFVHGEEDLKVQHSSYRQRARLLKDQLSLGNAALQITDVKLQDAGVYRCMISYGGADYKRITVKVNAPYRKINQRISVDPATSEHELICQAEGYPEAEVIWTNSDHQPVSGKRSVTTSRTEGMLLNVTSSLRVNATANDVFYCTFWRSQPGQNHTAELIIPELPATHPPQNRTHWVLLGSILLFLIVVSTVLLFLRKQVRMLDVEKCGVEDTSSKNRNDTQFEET
The assay is described as follows: flow cytometry, CHO-chiPD-L1 cells, Anti-mouse-IgGFc-FITC, antibody 1 µg/ml.
Source text: as §1, §2

B1: 08-3F2 (antibody, V domains shown)
VH: DVQLQESGPDLVKPSQTLSLTCTVTGYSITSGYNWHWIRQFPGNKLEWMGYIHHSSITNYNPSLKSRISITRDTSKNQFFLQLSSVTTEDTATFYCAREGYDYDWFAYWGQGTLVTVSA
VL: DIVLAQSPATLSVTPGDSVSLSCRASQSISNNLHWYQQKSHESPRLLIKYASQSISGIPSRFSGSGSGTDFTLSINSVETEDFGMYFCQQSKSWPFTFGSGTRLEIK
notes: Murine monoclonal antibody from hybridoma, purified from ascites
Regarding B1, the binding result with Mouse PD-L1 on CHO cells [1] is recorded as “no binding (tested: 1 µg/ml)”. The “% cells in the FITC-positive gate” value in the assay with Mouse PD-L1 on CHO cells [2] was 7.37%; in assay [3] it was 60.9%; in assay [4], 88.3%.

B2: 17-7E4 (antibody, V domains shown)
VH: QVQLQQSGAELVRPGVSVKISCKGSGFKFTDYAIHWVKQSHAKSLEWIGVISIYYGEASYNQKFKDKATLTVDTSSSTAYMELARLTSEDSAIYYCAREDYYGSSSYFDYWGQGTALTVSS
VL: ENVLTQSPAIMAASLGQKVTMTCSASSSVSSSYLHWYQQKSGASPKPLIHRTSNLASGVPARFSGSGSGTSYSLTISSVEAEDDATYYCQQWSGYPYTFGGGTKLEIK
notes: as for B1
As to B2, the binding result with Mouse PD-L1 on CHO cells [1] was “no binding (tested: 1 µg/ml)”. Further, the figures for the “% cells in the FITC-positive gate” value (with Mouse PD-L1 on CHO cells [2]; in assay [3]; in assay [4]) were 1.1%, 64.9% and 67.8%, respectively.

B3: 07-6A11 (antibody, V domains shown)
VH: DVQLVESGGGLVQPGGSRKLSCAASGFTFSSFGMHWVRQAPEKGLEWVAYISSGSNTIYYADTVKGRFTISRDNPKNTLFLQMTSLRSEDTAIYYCTRNGYDGWYAMDYWGQGTSVTVSS
VL: QIVLTQSPAIMSASPGEKVTMTCSASSSVSYIHWFQQKSGTSPKRWIYDTSKLASGVPARFSGRGSGTSYSLTISSMEAEDAATYYCQQWSTNPFTFGSGTKLEIK
notes: as for B1
In the case of B3, the binding result in the assay with Mouse PD-L1 on CHO cells [1] was “no binding (tested: 1 µg/ml)”. In addition, the “% cells in the FITC-positive gate” value in the assay with Mouse PD-L1 on CHO cells [2] was determined as 4.56%; in assay [3], 51.4%; in assay [4] it was 77.4%.

These data come from US20220073621A1 (EUCURE BEIJING BIOPHARMA, published 2022).
